Laboratory results reported in patent US20240417458A1 (DISC MEDICINE, published 2024).

T1: membrane-bound human RGMc (human, UniProt Q6ZVN8 36-400)
T1 sequence: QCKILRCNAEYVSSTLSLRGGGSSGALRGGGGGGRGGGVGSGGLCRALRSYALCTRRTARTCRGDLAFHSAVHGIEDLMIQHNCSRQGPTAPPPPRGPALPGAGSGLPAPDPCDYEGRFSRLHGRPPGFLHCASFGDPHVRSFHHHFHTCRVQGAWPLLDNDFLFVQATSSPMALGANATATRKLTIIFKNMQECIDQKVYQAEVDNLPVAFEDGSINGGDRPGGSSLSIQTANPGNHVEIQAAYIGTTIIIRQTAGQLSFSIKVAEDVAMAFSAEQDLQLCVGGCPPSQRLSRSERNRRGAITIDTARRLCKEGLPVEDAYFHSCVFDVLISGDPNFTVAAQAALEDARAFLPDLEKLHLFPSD

T2: soluble human RGMc (human, UniProt Q6ZVN8 36-400)
T2 construct: also called huRGMc; soluble hRGMc
T2 sequence: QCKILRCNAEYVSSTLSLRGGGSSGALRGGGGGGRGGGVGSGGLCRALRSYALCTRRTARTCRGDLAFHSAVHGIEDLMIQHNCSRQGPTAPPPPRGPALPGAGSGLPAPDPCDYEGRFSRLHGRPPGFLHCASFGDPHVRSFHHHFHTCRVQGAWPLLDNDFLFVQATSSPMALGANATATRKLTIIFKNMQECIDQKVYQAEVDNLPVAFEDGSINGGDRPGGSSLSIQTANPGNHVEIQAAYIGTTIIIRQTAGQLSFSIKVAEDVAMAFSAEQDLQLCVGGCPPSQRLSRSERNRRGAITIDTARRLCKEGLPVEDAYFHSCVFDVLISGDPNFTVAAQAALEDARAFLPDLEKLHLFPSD

T3: soluble human RGMa (human, UniProt Q96B86 48-422, limits assumed)
T3 construct: Soluble antigen in BIAcore; also called huRGMa; repulsive guidance molecule A
T3 sequence (looked up): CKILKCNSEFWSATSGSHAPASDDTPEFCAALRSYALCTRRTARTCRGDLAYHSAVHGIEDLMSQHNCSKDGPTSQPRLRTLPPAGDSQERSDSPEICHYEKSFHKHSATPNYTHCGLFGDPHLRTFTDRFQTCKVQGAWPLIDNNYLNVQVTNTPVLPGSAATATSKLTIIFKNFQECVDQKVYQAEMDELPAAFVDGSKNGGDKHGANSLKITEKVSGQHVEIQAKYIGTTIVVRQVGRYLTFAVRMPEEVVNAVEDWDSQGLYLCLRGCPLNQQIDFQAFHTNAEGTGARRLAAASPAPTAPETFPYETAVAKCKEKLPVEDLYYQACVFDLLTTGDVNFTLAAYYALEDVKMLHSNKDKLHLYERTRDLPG

T4: soluble rat RGMa (rat, UniProt D4A188 48-421)
T4 construct: Soluble antigen in BIAcore
T4 sequence: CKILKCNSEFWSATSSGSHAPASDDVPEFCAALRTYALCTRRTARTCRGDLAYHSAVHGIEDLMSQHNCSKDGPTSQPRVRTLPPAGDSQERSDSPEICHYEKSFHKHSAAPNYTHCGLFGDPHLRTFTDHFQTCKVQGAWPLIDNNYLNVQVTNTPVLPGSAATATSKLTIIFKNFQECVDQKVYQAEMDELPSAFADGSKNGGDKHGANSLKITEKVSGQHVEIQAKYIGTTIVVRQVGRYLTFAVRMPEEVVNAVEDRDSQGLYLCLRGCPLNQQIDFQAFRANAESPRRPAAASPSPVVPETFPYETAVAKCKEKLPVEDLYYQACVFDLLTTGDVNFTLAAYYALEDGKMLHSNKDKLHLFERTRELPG

T5: membrane-bound human RGMa (human, UniProt Q96B86 169-424)
T5 sequence (looked up): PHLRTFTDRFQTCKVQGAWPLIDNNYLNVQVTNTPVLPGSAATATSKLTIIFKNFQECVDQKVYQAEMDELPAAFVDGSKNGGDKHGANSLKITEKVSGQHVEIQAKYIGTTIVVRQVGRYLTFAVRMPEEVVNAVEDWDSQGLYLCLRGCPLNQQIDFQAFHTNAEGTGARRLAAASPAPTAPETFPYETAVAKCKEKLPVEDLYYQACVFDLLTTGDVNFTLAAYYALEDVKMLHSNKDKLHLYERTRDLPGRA


Assays:
[1] = molecular target: T1, membrane-bound human RGMc; assay: cell-based or functional assay
soluble human RGMc [2] = molecular target: T2, soluble human RGMc; assay: SPR (BIAcore), soluble hRGMc; summary table
soluble human RGMa = molecular target: T3, soluble human RGMa; assay: SPR (BIAcore);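 also: Anti-HJV antibodies tested for binding against soluble human RGMa by surface plasmon resonance on a BIAcore instrument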
Description: (§1) Binding affinities of the anti-HJV antibodies to soluble human RGMa, Rat RGMa and human RGMc were measured by BIAcore analysis.

soluble rat RGMa = molecular target: T4, soluble rat RGMa; assay: SPR (BIAcore);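 also: binding kinetics and affinity of anti-HJV antibodies toward soluble rat RGMa, determined by SPR on a BIAcore instrument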
Description: as §1

[3] = molecular target: T1, membrane-bound human RGMc; assay: cell-based or functional assay; remark: listed apart in the source
[4] = molecular target: T1, membrane-bound human RGMc; assay: cell-based or functional assay; remark: listed apart in the source
soluble human RGMc [5] = molecular target: T2, soluble human RGMc; assay: SPR (BIAcore);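 also: Anti-HJV antibodies, binding affinity to soluble human RGMc measured by BIAcore surface plasmon resonance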
Description: as §1

[6] = molecular target: T5, membrane-bound human RGMa; assay: cell-based or functional assay
[7] = molecular target: T5, membrane-bound human RGMa; assay: cell-based or functional assay; remark: listed apart in the source
[8] = molecular target: T5, membrane-bound human RGMa; assay: cell-based or functional assay; remark: listed apart in the source

| Binder | IC50 (nM), BMP reporter assay for RGMc (BRE-Luc, HEK293) [1] | Kd (soluble human RGMc [2]) | koff (soluble human RGMc [2]) | kon (soluble human RGMc [2]) | Kd (soluble human RGMa) | koff (soluble human RGMa) | kon (soluble human RGMa) | Kd (soluble rat RGMa) | koff (soluble rat RGMa) | kon (soluble rat RGMa) | IC50 (read off the curve) [3] | Potency on membrane hRGMc (RGMc/BMP reporter assay), IC50 [4] | Kd (soluble human RGMc [5]) | koff (soluble human RGMc [5]) | kon (soluble human RGMc [5]) | IC50 (read off the curve) [6] | Potency on membrane hRGMa (RGMa/BMP reporter assay), IC50 [7] | IC50 (nM), BMP reporter assay for RGMa [8] |
| --- | --- | --- | --- | --- | --- | --- | --- | --- | --- | --- | --- | --- | --- | --- | --- | --- | --- | --- |
| hHA-009 (antibody, human IgG1, kappa, L234A L235A, V domains shown, hIgG1 L234A, L235A, kappa) VH: EVQLVESGGGLVQPGGSLRLSCAASGFTFSNYGMNWVRQAPGKGLEWIGMIYYDSSEKHYADSVKGRFTISRDNSKNTLYLQMNSLRAEDTAVYYCAKGTTPDYWGQGTMVTVSS VL: DVVLTQSPLSLPVTLGQPASISCRSSQSLADSDGDTFLHWFQQRPGQSPRLLIYAVSHRFSGVPDRFSGSGSGTDFTLKISRVEAEDVGVYYCFQATHDPVTFGQGTKLEIKR | 1.36 nM | 0.71 nM | 0.0107 s⁻¹ | 1.55e+07 M⁻¹ s⁻¹ | 0.47 nM | 0.0004 s⁻¹ | 860000 M⁻¹ s⁻¹ | 0.31 nM | 0.00021 s⁻¹ | 680000 M⁻¹ s⁻¹ | ~2 nM | 1.36 nM | 0.71 nM | 0.0107 s⁻¹ | 1.55e+07 M⁻¹ s⁻¹ | – | – | – |
| hHA-005 (antibody, human IgG1, kappa, L234A L235A, V domains shown, hIgG1 L234A, L235A, kappa) VH: EVQLVESGGGLVQPGGSLRLSCAASGFTFSNYGMNWIRQAPGKGLEWIGMIYYDSSEKHYADSVKGRFTISRDNSKNTLYLQMNSLRAEDTAVYYCAKGTTPDYWGQGTMVTVSS VL: DVVLTQSPLSLPVTLGQPASISCRSSQSLEESDGYTFLEWFQQRPGQSPRLLIYDVSERFSGVPDRFSGSGSGTDFTLKISRVEAEDVGVYYCFQATYDPLTFGQGTKLEIKR | – | – | – | – | 0.13 nM | 0.00025 s⁻¹ | 1.9e+06 M⁻¹ s⁻¹ | 0.15 nM | 0.00021 s⁻¹ | 1.4e+06 M⁻¹ s⁻¹ | – | – | 0.32 nM | 0.0136 s⁻¹ | 4.15e+07 M⁻¹ s⁻¹ | – | – | – |
| hHA-010 (antibody, human IgG1, kappa, L234A L235A, V domains shown, hIgG1 L234A, L235A, kappa) VH: EVQLVESGGGLVQPGGSLRLSCAASGFTFSNYGMNWVRQAPGKGLEWIGMIYYDSSEKHYADSVKGRFTISRDNSKNTLYLQMNSLRAEDTAVYYCAKGTTPDKWGQGTMVTVSS VL: DVVLTQSPLSLPVTLGQPASISCRSSQSLEESDGYTFLEWFQQRPGQSPRLLIYEVSHRFSGVPDRFSGSGSGTDFTLKISRVEAEDVGVYYCFQATHDPLTFGQGTKLEIKR | – | – | – | – | 0.12 nM | 0.0001 s⁻¹ | 850000 M⁻¹ s⁻¹ | 0.039 nM | 2.6e-05 s⁻¹ | 660000 M⁻¹ s⁻¹ | – | – | 0.445 nM | 0.0044 s⁻¹ | 9.9e+06 M⁻¹ s⁻¹ | – | – | – |

More lines, in order of falling Kd (soluble human RGMa), values ahead:

| IC50 (nM), BMP reporter assay for RGMc (BRE-Luc, HEK293) [1] | Kd (soluble human RGMc [2]) | koff (soluble human RGMc [2]) | kon (soluble human RGMc [2]) | Kd (soluble human RGMa) | koff (soluble human RGMa) | kon (soluble human RGMa) | Kd (soluble rat RGMa) | koff (soluble rat RGMa) | kon (soluble rat RGMa) | IC50 (read off the curve) [3] | Potency on membrane hRGMc (RGMc/BMP reporter assay), IC50 [4] | Kd (soluble human RGMc [5]) | koff (soluble human RGMc [5]) | kon (soluble human RGMc [5]) | IC50 (read off the curve) [6] | Potency on membrane hRGMa (RGMa/BMP reporter assay), IC50 [7] | IC50 (nM), BMP reporter assay for RGMa [8] | Binder |
| --- | --- | --- | --- | --- | --- | --- | --- | --- | --- | --- | --- | --- | --- | --- | --- | --- | --- | --- |
| – | – | – | – | 0.037 nM | 5e-05 s⁻¹ | 1.4e+06 M⁻¹ s⁻¹ | 0.053 nM | 5.5e-05 s⁻¹ | 1e+06 M⁻¹ s⁻¹ | – | – | 0.225 nM | 0.0017 s⁻¹ | 7.65e+06 M⁻¹ s⁻¹ | – | – | – | hHA-002 (antibody, human IgG1, kappa, L234A L235A, V domains shown, hIgG1 L234A, L235A, kappa) VH: EVQLVESGGGLVQPGGSLRLSCAASGFTFSNYGMNWIRQAPGKGLEWIGMIYYDSSEKHYADSVKGRFTISRDNSKNTLYLQMNSLRAEDTAVYYCAKGTTPDYWGQGTMVTVSS VL: DVVLTQSPLSLPVTLGQPASISCRSSQSLETSDGDTFLEWFQQRPGQSPRLLIYEVSSRFSGVPDRFSGSGSGTDFTLKISRVEAEDVGVYYCMQVTHDPLTFGQGTKLEIKR |
| 0.312 nM | 0.13 nM | 0.00104 s⁻¹ | 7.85e+06 M⁻¹ s⁻¹ | 0.015 nM | 2.2e-05 s⁻¹ | 1.4e+06 M⁻¹ s⁻¹ | < 0.00094 nM | < 1e-06 s⁻¹ | 1.1e+06 M⁻¹ s⁻¹ | ~0.3 nM | 0.31 nM | 0.13 nM | 0.00104 s⁻¹ | 7.85e+06 M⁻¹ s⁻¹ | ~2 nM | 2 nM | 2.01 nM | hHA-004 (antibody, human IgG1, kappa, L234A L235A, V domains shown, hIgG1 L234A, L235A, kappa) VH: EVQLVESGGGLVQPGGSLRLSCAASGFTFSNYGMNWIRQAPGKGLEWIGMIYYDSSEKHYADSVKGRFTISRDNSKNTLYLQMNSLRAEDTAVYYCAKGTTPDYWGQGTMVTVSS VL: DVVLTQSPLSLPVTLGQPASISCRSSQSLESSDGDTFLEWFQQRPGQSPRLLIYDVSTRFSGVPDRFSGSGSGTDFTLKISRVEAEDVGVYYCFQVTHDPVTFGQGTKLEIKR |
